Test: yeast display, Sf9 membrane polyspecificity reagent, FACS + sequencing; frameworks hold sequencing errors
Procedure, shortened: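 Galactose-induced (36–48 hours) yeast carrying a synthetic nanobody display library were exposed to 10% biotinylated, detergent-solubilized Sf9 membrane reagent at 4 °C for 1 hour. FACS followed streptavidin microbead enrichment, using low and high (top ~1%) gates for expression (anti-HA) and reagent binding (streptavidin). Colony PCR, MiSeq 2 × 250 sequencing and CDR-length filtering followed. Labels for polyreactivity reflect the gate of origin.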

Sequence	polyreactivity (PSR sort gate)
QVQLVESGGGLVQAGGSLRLSCAASGYTIFFNVMGGYRQAPGKERELVAAISYSGGSTNYADSVKGRFTISRDNAKNTVYLQMNSLKPEDTAVYYCNTVRSPPGHVYWGEGTQVTVSS	low polyreactivity
QVQLVESGGGLVQAGGSLRLTCAASGRIFGAYTMGWYRQEPGKERELVAAISWSGGRTYYADSVKGRFTISRDNAKNTFYLQLNSLNAEDTAVYYCNVRRQSGRYRVYEYDYWGQGTQVTVSS	low polyreactivity
QVQLVESGGGLVQAGGSLRLSCAATGSTFWQYVMGWYRQAPGKERELVAAISYSGGSTYYADSVKGRFTISRDNAKNTVYLQMNSLKPEDTAVYYCATRGYRWSVFDYWGQGTQVTVSS	high polyreactivity
QVQLVESGGGLVQAGGSLRLSCAASGRISRSNTMGWYRQAPGKERELVAAISRGGGSTYYADSVKGRFTISRDNAKNTVYLQMKSLKPEDTAVYYCAKRSAITGYEYWGQGTQVTVSS	high polyreactivity
QVQLVESGGGLVPAGGSLRLSCAASGRIFWSNAMGWYRQAPGKERELVAAITWRGGSTYADSVKGRFTISRDNAKNTVYLQMNSLKPEDTAVFYCAASPSGWRYDYWGQGTQVTVSS	high polyreactivity
QVQLVESGGGLVQAGGSLRLSCAASGFTFQAYAMGWYRQAPGKERELVAAISKSGGSTYYADSVKGRFTISRDNAKNTVYLQMNSLKPEDTAVYYCAARSWERYRAFIYWGQGTQVTVSS	high polyreactivity
QVQLVESGGGLVQAGGSLRLSCAASGSTFLSYAMGWYRQAPGKERELVARITSSGGNTYYADSVKGRFTISRDNAKNTVYLQMNSLKPEDTAVYYCAVSLEDQQYIFDYWGQGTQVTVSS	low polyreactivity
QVQIVDSGRGLVQAGGSLRLSCAASGRTFIRYTMGWSRQATGKERELFAAITSGGITNYADSVKGRFTISRDNAKNPVYLQMNSLKPQDSALYYCAARHRWVTGSYGKYDYLGQGTQVTVSS	low polyreactivity
QVQLVESCGGLVQAGGSLRLSCAASGSIFPPYAMGWYRQAPGKERELVATITIRGGSTYYADSVKGRFTISRDNAKNTVYLQMNSLKPEDTAVYYCAADYTKYYRRYYYWGQGTQVTVSS	high polyreactivity
QVQLVESGGGLVQAGGSLRLSCAASGLTFVSYAMGWYRQAPGKERELVAAISYGGGSTNYADSVKGRFTISRDNAKNTVDLQMNSLKPEDTAVYYCAAEPGYYDEYGYWGQGTQVTVSS	low polyreactivity
QVQLVESGGGLVQAGGSLRLSCAASGITFGHYAMGWYRQAPGKERELVAAINFSGGSTYYADSVKGRFTISRDNAKNTVYLQMNSLKPEDTAVYYCAAKYSRSLRYPWYNYWGQGTQVTVSS	high polyreactivity
HVQLVESGGGLVQAGGSLRISCAASGRIFGRNAMGWYRQAPGTERELVATISGGGSTYYADSVKGRFTISRDNAKNTVYFQMNSLKPEDTAVFYCAVGHRWWGAYAGYDYWGQGTQVTVSS	low polyreactivity
QVQLVESGGGLVQAGGSLRLSCAASGRTFTYYGKGWYRQAPGKERELVAAITERGDSTYYADSVKGRFTISRDNAKNTVYLQMNSLKPEDTAVYYCAAAEHLTRPTSPTQDGDHWGQGTQVTVSS	low polyreactivity
QVQLVESGGGLVQAGGSLRLSCAASGFIFSRNAMGWYRQAPGKERELVDRISRSGGRTYYADSVKGRFTISRDNAKNTVYLQMNSLKPEDTAVYYCATDHVRQSPYDYWGQGTQVTVSS	high polyreactivity
QVQLVESGVGLVQAGGSLRLSCAASGLTFRYYAMGWYRQAPGKERELVAAITRRGSTYYADSVKGRFTISRDNAKNTVYLQMISLKPEVTAVYYCATVTGFHSSPLRDLDYWGQGTQVTVSS	high polyreactivity
QVQLVESGGGLVQAGGSLRLSCAASGFTFRRYAMGWYRQAPGKERELVAAITRNGGSTYYADSVKGRFTISRDNAKNTVYLQMNRLKPEDTAVYYCNAVLYTPVYDGFDSWGQGTQVTVSS	high polyreactivity
QVQLVESGGGLVQAGGSLRLSCAASGGTFYSYAMGWYRQAPGIEREVVAAISRRGGSTYYADSVKGRFTISRDNAKNTVYLLMNSLKPEDTAVYFCNTYIYQVRDDYWGQGTQVTVSS	high polyreactivity
QVQLVESGGGLVQAGGSLRLSCAASGITLYYYAMGWYRQAPGKEREFVAAITWRGTNTYYADSVKGRFTISRDNAKNTVYLQMNSLKPEDTAVYYCAADYEQRVADYYYWGQGTQVTVSS	low polyreactivity
QVQRVESGGGLVQAGGSLRLSCAASGFIFETYAMGWYRQAPGKERELVAAISWRTGRTYYADSVKGRFTISRDNAKNTVYLQMNSLKPEDTAVYYCNADYGGTSTLKDFDYWGQGTQVTVSS	low polyreactivity
QDQLVESGGGLVQAGGSLRLSCAASGSIFRYVMGWYRQAPGNERELVAAISIRGGSTYYADSVKGRFTISRDNAKNTVFFQMHSLKPEDTAVYYCAADRYRLGVKYDYWGQGTQVTVSS	high polyreactivity
QVQLVESGGGIVQAGGSLRLSCDASGSIFNYYTMGWYRQEPGKERELVAAISYRGGRTYYADSVKGRFTISRDNAKNTVYLQMNSLKPEDTAVYYCAAGWLLYVFFPREYYYWGQGTQVTVSS	high polyreactivity
QVQLVESGGGLVQAGGSLRLSCAASGSIFDTYAMGWYRQATGKERELVSTISWSGDSKYYADSVKGRFTISRDNAKNTVYLQINSLKPEDTAVYYCAADVGQVWDHEDYDYWGQGTQVTVSS	low polyreactivity

Sequence	polyreactivity (PSR sort gate)
QVQLVESGGGLVQAGGSLRLSCAASGTTFYHNVMGWYRQAPGKERELVASIDTGDSTNYADSVKGRFTISRDNAKNTVYLQMNSLKPEDTAVYYCNADSYPALNKRGYDYWGQGTQVTVSS	low polyreactivity
QVQLVESGGGLVQSGGSLRLSCAASGIIFDSYAMGWYRQAPGKERELVAAISSRGASTYYADSVKGRFTISRDNAKYTVYLQMNSLKPEDTAVYYCNAVYYAYRYGSSYDWGQGTQVTVSS	high polyreactivity
QVQLVESGGGLVQAGGSLRLSCAASGFIFPYYAMGLYRQAPGKERELVAAITFSATRTYYADSVKGRFTISRDNAKNTVYLQMNSLKPEDTAVYYCKARGGVYGSYFEFNYWRQGTQVTVSS	low polyreactivity
QVQLEESGGGLVQAGGSLRLSCAASGRTIQDNAMGWYRQAHGKERELVAAIRDNGGSTYYADSVKGRFTISRDNAKNTVFLQMNSLKPEDTAVYYCAADQGTGSYDYWGQGTQVTVSS	low polyreactivity
QVQLVESGGGLVQARGSLRLSCAASGIIFSTYAMGWYRQAPGKERELVAAISASGVRTYYADSVKGRFTISRDNAKNTVYLQMNSLKPEDTAVYYCAVRGYPYLRYYWGQGTQVTVSS	high polyreactivity
QVQLVESGGGLVQSGGSLRLSCAASGSTFSTYAMGWYRQAPGKERQLVAGITGSGGRTYYADSVKGRFTISRDNAKHTVYLQMNSMKPEDTGVYYCAASTRGYKWVGRDYDYWGQGTQVTVSS	high polyreactivity
QVQLVESGGGLVQAGGSLRLSCAASGITFFTYAMGWYRQAPGKEREFVATISYGGGSTYYADSVKGRFTISRDNAKNTVYLQMNSLKPEDTAVYYCNAEGYVPTYFQHYAYWGQGTQVTVSS	low polyreactivity
QVQLVKSGGGLVQAGGSLRLSCAASGSTFYNAMGWYRQAPGKERELVAAISIGGSTYYADSVKGRFTISRDNAKNTVYLQMNSLKPEDTAVYYCAAVWYTSRQKYDYWGQGTQVTVSS	low polyreactivity
QVQLVESGGGLVQAGGSLRLSCAASGLTFVYYAMGWYRQAPGKERELVAAISSGGSTYYADSVKGRFTISRDNAKNTVYLQMNSLKPEDTAVYYCAATYSSFRRYPGAHYRFGYWGQGTQVTVSS	high polyreactivity
QVQLVESGGGLVQAGGSLRLSCAASGSTFDTYAMGWYRPAPGKERELVAGMTRRGGRTYYADSVKGRFTISRDTAKNTVYLQKNSLKPEDTADYYCNAVPQRPVGKLDHWGQGTQVTVSS	high polyreactivity
QVQLVESGGGLVQAGGSLRLSCAASGLTFTLNAMGRYRQATGKERELVATISQDGGGTTYADSVKGRFTISRDNAKNTVYLQMNSLKPEDTAVYYCATTLPPSVWGEWSGTRYPYDYWGQGTQVTVSS	low polyreactivity
QVQLVESGGGLVQAGGSLRLSCAASGRIFRRNVMGWYRQAPGKEREMLAAIRGTGSTTYADSVKGRFTISRDNEKNTVYLQMNSLKPEDTAVYYCAAVQQGNHGFRYYYWGQGTQVTVSS	high polyreactivity
QVQLVDSGGGLVQAGGILRLSCAASGSTFRRYSMGWYRHAPGKQRELVAAISGRGGSTSYADSVKGRFTISRDNAKNTVYLQINSLKPEDTAVYYCAADDKYFYPGNGYWGQGTQVTVSS	high polyreactivity
QVQLVESGGGLDQAGGSLRLSCAASGSIFGSYTMGWYRQAPGKERQLVAVINWSGDRTYYADSVKGRFTISRDNAKNTVYLQMNSLKPEDTAVYYCAARERAGYSRIRYNYWGQGTQGTVSS	high polyreactivity
QVQLVESGGGLVQAGGSLRLSCAASGSIFRYYAMGWYRQAPGKERELVATISRDGGNTYYADSVKGRFTISRDNAKNTVYVQMNSLKPEDTAVYYCAKLGYRLSGYGYDYWGQGTQVTVSS	high polyreactivity
QVQLVESGGGLVQAGGSLRLSCAASGFIDAYTMGWYRQAPGKERELVAAITWSGGRTYYADSVKGRFTISRDNAKNTVYLQMNSLKPEDTAVYYCAATVSRGFYSWWYDYWGQGTQVTVSS	low polyreactivity
QVQLVESGGGLVQAGGSLRLSCAASGSIFVWYAMGWYRQAPGKERELVARITSGGRTNYADSVKGRFTISRDNAKNTVYLQMNSLKPEDTAVYDCAAGRVSWSPYYYWGQGTQVNVSS	high polyreactivity
QVQLVESGGGLVQAGGSIRLSCAASGSTFYIYAMGWYRQAPGQERELVATISWSGGSTYYADSVKGRFTISRDNAKNTVYLQMNSLKPEDTAVYYCAVRPGFGRSLWYGYWGQGTQVTVSS	high polyreactivity
QVQLVESGGGLVQAGGTLRLSCAASGITFKRYAMGWYRLAPGKERELVATISRSGGSPYADSVKGRFTISRDNAMNTVYLQMNSLKPEDSAVYYCNAVSQSSEYDYWGEGTQVTVSS	high polyreactivity
QVQLVDSGGGLVQAGGSLRLSCAASGLTFRRYAMAWYRQAPGKERELVAGISRGGSTYYADSVKGRFTISRDNAKNTVYLQMTSLKPEDTAVYYCAAYNRGTYPVQPVPYDMDYWGQGTQVTVSS	low polyreactivity
QVQLVESGGRLVQAGGSLRLSCAASGRTSVVHAMGWYRTAPGKERELVAAITSGGSTHYPDSVKGRFTISRDNAKNTVYLQMNSLKPEDTAVYYCNARDRRRTNLQDYWGQGTQVTVSS	low polyreactivity
